Reference: patent US12534748B2, “Engineered beta-subunit of tryptophan synthase for production of non-canonical amino acids” (California Institute of Technology, priority 2015, dated 2026)

How the values were obtained:
[1] = substrate: c1ccc2[nH]ccc2c1; assay: Tryptophan formation from L-serine and indole, kinetics of AfTrpB double mutant; assay type: biochemical, Archaeoglobus fulgidus; conditions: other: 60° C., pH 8.0
Experimental: (§1) Kinetics and UV-Vis Spectroscopy. Data were collected between 550 and 250 nm on a UV1800 Shimadzu spectrophotometer (Shimadzu) using 0.25-20 μM of enzyme in 200 mM potassium phosphate (pH 8.0) in a quartz cuvette. […] PfTrpB activity (kcat) was measured by monitoring tryptophan formation at 290 nm using Δe290=1.89 mM^−1·cm^−1.
(§2) Cloning, expression, and purification of the different orthologs. The genes encoding AfTrpB (UNIPROT ID O28672), TmTrpB (UNIPROT ID P50909) and EcTrpB (UNIPROT ID P0A879) were obtained from IDT and cloned into pET22(b)+ using Gibson Assembly. Protein expression was carried out in E. coli BL21 E. cloni Express cells (Lucigen) by inoculating 10-mL Terrific Broth (with 100 μg/mL ampicillin (TBamp)) with a single colony and incubated over night at 37° C. and 250 rpm. These overnight cultures were used to scale up to 500-mL TBamp expression cultures, which were grown by shaking at 250 rpm and 37° C. for ˜3 h or until an OD600 of 0.8 was reached. Then, after chilling the cultures on ice for 20 min, induction was conducted by the addition of IPTG to a final concentration of 1 mM. Induced cultures were allowed to grow at 250 rpm and 20° C. for another 20 h. After centrifugation, pelleted cells were frozen and stored at −20° C. until further use. […]

[2] = substrate: c1ccc2[nH]ccc2c1; assay: Tryptophan formation from L-serine and indole, kinetics of TmTrpS complex; assay type: biochemical, Thermotoga maritima; conditions: other: 75° C., pH 8.0
Experimental: (§3) Kinetics and UV-Vis Spectroscopy. Data were collected between 550 and 250 nm on a UV1800 Shimadzu spectrophotometer (Shimadzu) using 0.25-20 μM of enzyme in 200 mM potassium phosphate (pH 8.0) in a quartz cuvette. Samples were incubated at 75° C. for >3 min to ensure a stable temperature was reached. PfTrpB activity (kcat) was measured by monitoring tryptophan formation at 290 nm using Δe290=1.89 mM^−1·cm^−1.
as §2, with “mM.” for “mM. Induced cultures were allowed to grow at 250 rpm and 20° C. for another 20 h. After centrifugation, pelleted cells were frozen and stored at −20° C. until further use.”
TmTrpA gene was also obtained from IDT and cloned into pET22(b)+ using Gibson Assembly, but without including the C-terminal His-tag. […] Protein concentrations were determined via the Bradford assay (Bio-Rad).

[3] = substrate: c1ccc2[nH]ccc2c1; assay: Tryptophan formation from L-serine and indole, kinetics of TmTrpB double mutant; assay type: biochemical, Thermotoga maritima; conditions: other: 75° C., pH 8.0
Experimental: as §3, §2

[4] = substrate: c1ccc2[nH]ccc2c1; assay: Tryptophan formation from L-serine and indole, kinetics of wild-type TmTrpB; assay type: biochemical, Thermotoga maritima; conditions: other: 75° C., pH 8.0
Experimental: The three TrpB homologs and their corresponding 0B2 variants were expressed and purified, and then their kinetic properties (kcat and KM of indole) were measured.

[5] = substrate: c1ccc2[nH]ccc2c1; assay: Tryptophan formation from L-serine and indole, kinetics of TmTrpB^triple; assay type: biochemical, Thermotoga maritima; conditions: other: 75° C., pH 8.0
Experimental: as §3
as §2, with “reached.” for “reached. Then, after chilling the cultures on ice for 20 min, induction was conducted by the addition of IPTG to a final concentration of 1 mM. Induced cultures were allowed to grow at 250 rpm and 20° C. for another 20 h. After centrifugation, pelleted cells were frozen and stored at −20° C. until further use.”
The next homolog, TmTrpB, was examined. […] The variants without the T292S mutation lacked this probative absorbance peak, but the decrease at 428 nm and concomitant increase at 350 nm are consistent with a similar, though less pronounced activation.

[6] = substrate: c1ccc2[nH]ccc2c1; assay: Tryptophan formation from L-serine and indole, kinetics of EcTrpB double mutant; assay type: biochemical, Escherichia coli; conditions: other: 37° C., pH 8.0
Experimental: as §1, §2

B1: Archaeoglobus fulgidus TrpB variant M156T N178D (Table 6 prints N178T), SEQ ID NO: 24 (Archaeoglobus fulgidus DSM 4304; M156T/N178D) (protein)
chain: MRCWLENLSGGRKMKFGEFGGRFVPEVLIPPLEELEKAYDRFKDDEEFKARLEYYLKSYAGRPTPLYFAENLSRELGVKIYLKREDLLHGGAHKINNTIGQALLAKFMGKKRVIAETGAGQHGVATAMAAALLGLEAEIYMGAEDYERQKMNVFRTELLGAKVTAVESGSRTLKDAIDEALRDWVESFEHTHYLIGSVVGPHPFPTIVRDFQAVIGKEARRQIIEAEGGMPDAIIACVGGGSNAMGIFHPFLNDDVRLIGVEAGGEGIESGRHSASLTAGSKGVLHGMLSYFLQDEEGMMLDTHSVSAGLDYPGVGPEHAYLKETGRCEYVTVNDEEALRAFKTLSKLEGIIPALESAHAIAYAMKMAEEMQRDDVLVVNLSGRGDKDMDIVRRRLALEHHHHHH
[1]
  Km: 11 µM

B2: Thermotoga maritima tryptophan synthase complex TmTrpS (TmTrpA + TmTrpB) (Thermotoga maritima MSB8) (protein)
chain: MKGYFGPYGGQYVPEILMPALEELEAAYEEIMKDESFWKEFNDLLRDYAGRPTPLYFARRLSEKYGARIYLKREDLLHTGAHKINNAIGQVLLAKKMGKTRIIAETGAGQHGVATATAAALFGMECVIYMGEEDTIRQKPNVERMKLLGAKVVPVKSGSRTLKDAINEALRDWITNLQTTYYVIGSVVGPHPYPIIVRNFQKVIGEETKKQILEKEGRLPDYIVACVGGGSNAAGIFYPFIDSGVKLIGVEAGGEGLETGKHAASLLKGKIGYLHGSKTFVLQDDWGQVQVTHSVSAGLDYSGVGPEHAYWRETGKVLYDAVTDEEALDAFIELSRLEGIIPALESSHALAYLKKINIKGKVVVVNLSGRGDKDLESVLNHPYVRERIRLEHHHHHH
[2]
  Km: 44 µM

B3: Thermotoga maritima TrpB variant M145T N167D (Table 6 prints N167T), SEQ ID NO: 36 (Thermotoga maritima MSB8; M145T/N167D) (protein)
chain: MKGYFGPYGGQYVPEILMPALEELEAAYEEIMKDESFWKEFNDLLRDYAGRPTPLYFARRLSEKYGARIYLKREDLLHTGAHKINNAIGQVLLAKKMGKTRIIAETGAGQHGVATATAAALFGMECVIYMGEEDTIRQKPNVERTKLLGAKVVPVKSGSRTLKDAIDEALRDWITNLQTTYYVIGSVVGPHPYPIIVRNFQKVIGEETKKQILEKEGRLPDYIVACVGGGSNAAGIFYPFIDSGVKLIGVEAGGEGLETGKHAASLLKGKIGYLHGSKTFVLQDDWGQVQVTHSVSAGLDYSGVGPEHAYWRETGKVLYDAVTDEEALDAFIELSRLEGIIPALESSHALAYLKKINIKGKVVVVNLSGRGDKDLESVLNHPYVRERIRLEHHHHHH
[3]
  Km: 32 µM

B4: Thermotoga maritima tryptophan synthase beta-subunit TmTrpB, wild type, SEQ ID NO: 6 (Thermotoga maritima MSB8) (protein)
chain: MKGYFGPYGGQYVPEILMPALEELEAAYEEIMKDESFWKEFNDLLRDYAGRPTPLYFARRLSEKYGARIYLKREDLLHTGAHKINNAIGQVLLAKKMGKTRIIAETGAGQHGVATATAAALFGMECVIYMGEEDTIRQKPNVERMKLLGAKVVPVKSGSRTLKDAINEALRDWITNLQTTYYVIGSVVGPHPYPIIVRNFQKVIGEETKKQILEKEGRLPDYIVACVGGGSNAAGIFYPFIDSGVKLIGVEAGGEGLETGKHAASLLKGKIGYLHGSKTFVLQDDWGQVQVTHSVSAGLDYSGVGPEHAYWRETGKVLYDAVTDEEALDAFIELSRLEGIIPALESSHALAYLKKINIKGKVVVVNLSGRGDKDLESVLNHPYVRERIRLEHHHHHH
[4]
  Km: 33 µM

B5: Thermotoga maritima TrpB variant TmTrpB^triple (P19G, I69V, T292S), SEQ ID NO: 34 (Thermotoga maritima MSB8; I69V/P19G/T292S) (protein)
chain: MKGYFGPYGGQYVPEILMGALEELEAAYEEIMKDESFWKEFNDLLRDYAGRPTPLYFARRLSEKYGARVYLKREDLLHTGAHKINNAIGQVLLAKKMGKTRIIAETGAGQHGVATATAAALFGMECVIYMGEEDTIRQKPNVERMKLLGAKVVPVKSGSRTLKDAINEALRDWITNLQTTYYVIGSVVGPHPYPIIVRNFQKVIGEETKKQILEKEGRLPDYIVACVGGGSNAAGIFYPFIDSGVKLIGVEAGGEGLETGKHAASLLKGKIGYLHGSKTFVLQDDWGQVQVSHSVSAGLDYSGVGPEHAYWRETGKVLYDAVTDEEALDAFIELSRLEGIIPALESSHALAYLKKINIKGKVVVVNLSGRGDKDLESVLNHPYVRERIRLEHHHHHH
[5]
  Km: 26 µM

B6: Escherichia coli TrpB variant M149T N171D (Table 6 prints N171T), parent SEQ ID NO: 8, variant SEQ ID NO: 40 (Escherichia coli K-12; M149T/N171D) (protein)
chain: MTTLLNPYFGEFGGMYVPQILMPALRQLEEAFVSAQKDPEFQAQFNDLLKNYAGRPTALTKCQNITAGTNTTLYLKREDLLHGGAHKTNQVLGQALLAKRMGKTEIIAETGAGQHGVASALASALLGLKCRIYMGAKDVERQSPNVFRTRLMGAEVIPVHSGSATLKDACDEALRDWSGSYETAHYMLGTAAGPHPYPTIVREFQRMIGEETKAQILEREGRLPDAVIACVGGGSNAIGMFADFINETNVGLIGVEPGGHGIETGEHGAPLKHGRVGIYFGMKAPMMQTEDGQIEESYSISAGLDFPSVGPQHAYLNSTGRADYVSITDDEALEAFKTLCLHEGIIPALESSHALAHALKMMRENPDKEQLLVVNLSGRGDKDIFTVHDILKARGEILEHHHHHH
[6]
  Km: 18 µM
